Experimental data as given in patent publication US20190002588A1 (NATIONAL UNIVERSITY CORPORATION CHIBA UNIVERSITY, published 2019).
Substitutions are numbered along the chain they refer to. Names and notes keep the numbering of the source.

T1: human Myl12a-His (human, UniProt P19105 1-171)
T1 construct: Made in E. coli; GST tag cleaved with PreScission Protease; DTT-treated monomer
T1 sequence: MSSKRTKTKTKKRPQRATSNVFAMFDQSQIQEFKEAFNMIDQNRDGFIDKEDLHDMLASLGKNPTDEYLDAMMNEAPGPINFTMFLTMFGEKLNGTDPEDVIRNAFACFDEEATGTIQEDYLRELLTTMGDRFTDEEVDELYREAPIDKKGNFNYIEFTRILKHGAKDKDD

T2: human Myl9-His (human, UniProt P24844 2-172, limits assumed)
T2 construct: Made in E. coli; the GST tag was cleaved with PreScission Protease
T2 sequence: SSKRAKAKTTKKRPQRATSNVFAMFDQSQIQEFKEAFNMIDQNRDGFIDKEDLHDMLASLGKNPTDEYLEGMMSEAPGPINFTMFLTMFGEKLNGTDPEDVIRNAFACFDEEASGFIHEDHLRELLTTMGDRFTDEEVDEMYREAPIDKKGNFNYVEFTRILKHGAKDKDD

T3: glutathione-S-transferase (GST)-His-mouse Myl9 (mouse, UniProt Q9CQ19 2-172)
T3 construct: The order of the pieces follows the printed name; not shown: glutathione-S-transferase tag of the pET42b vector
T3 sequence: T2 sequence with S74N

T4: human Myl12b-His (human, UniProt O14950 1-172)
T4 construct: Made in E. coli; GST tag cleaved with PreScission Protease; DTT-treated monomer
T4 sequence: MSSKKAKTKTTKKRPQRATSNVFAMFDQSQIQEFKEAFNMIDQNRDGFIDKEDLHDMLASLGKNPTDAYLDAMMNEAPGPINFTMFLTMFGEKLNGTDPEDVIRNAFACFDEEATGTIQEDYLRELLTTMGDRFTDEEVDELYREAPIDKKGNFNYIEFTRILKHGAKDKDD

B1: Humanized antibody No. 113 (antibody, human IgG2, kappa, V domains shown)
VH: QVQLVQSGAEVKKPGSSVKVSCKASGGTFSDYEMHWVRQAPGQGLEWMGAIDPETGGTAYNQKFKGRVTITADKSTSTAYMELRSLRSEDTAVYYCADYDYDGFAYWGQGTLVTVSS
VL: DIVMTQSPLSLSITPGEQASISCRSSQSLVHSNGNTYLHWYLQKPGQSPQLLISKVSNRFSGVPDRFSGSGSGTDFTLKISRVEAEDVGVYFCSQNTHVPPLTFGGGTKVEIKR
notes: human IgG2 (V234A, G237A, C-terminal Lys deleted) / kappa; Expi293F, Protein A purified; also called HK1-6/L1-5
B2: Humanized antibody No. 114 (antibody, human IgG2, kappa, V domains shown)
VH: B1 VH with V68A
VL: B1 VL
notes: human IgG2 (V234A, G237A, C-terminal Lys deleted) / kappa; Expi293F, Protein A purified; also called HK1-4/L1-5
B3: Humanized antibody No. 110 (antibody, human IgG2, kappa, V domains shown)
VH: B1 VH with G27Y, S30T, N61A, K65Q
VL: B1 VL
notes: human IgG2 (V234A, G237A, C-terminal Lys deleted) / kappa; Expi293F, Protein A purified; also called HA1-6/L1-5
B4: Humanized antibody No. 115 (antibody, human IgG2, kappa, V domains shown)
VH: B1 VH with G27Y, M48I, V68A, A97T
VL: B1 VL
notes: human IgG2 (V234A, G237A, C-terminal Lys deleted) / kappa; Expi293F, Protein A purified; also called HK1-A/L1-5
B5: Humanized antibody No. 111 (antibody, human IgG2, kappa, V domains shown)
VH: B1 VH with G27Y, S30T, N61A, K65Q, V68A
VL: B1 VL
notes: human IgG2 (V234A, G237A, C-terminal Lys deleted) / kappa; Expi293F, Protein A purified; also called HA1-4/L1-5
B6: Humanized antibody No. 112 (antibody, human IgG2, kappa, V domains shown)
VH: B1 VH with R84S
VL: B1 VL
notes: human IgG2 (V234A, G237A, C-terminal Lys deleted) / kappa; Expi293F, Protein A purified; also called HK1-5/L1-5
B7: Humanized antibody No. 116 (antibody, human IgG2, kappa, V domains shown)
VH: B1 VH with S16A, G27Y, S30T, I70M, K74T, R84S
VL: B1 VL
notes: human IgG2 (V234A, G237A, C-terminal Lys deleted) / kappa; Expi293F, Protein A purified; also called HK2-5/L1-5
B8: 3× Flag-mouse CD69 EC (with sugar chain) (receptor, not shown: small tags and cut ends)
chain: NVGKYNCPGLYEKLESSDHHVATCKNEWISYKRTCYFFSTTTKSWALAQRSCSEDAATLAVIDSEKDMTFLKRYSGELEHWIGLKNEANQTWKWANGKEFNSWFNLTGSGRCVSVNHKNVTAVDCEANFHWVCSKPSR
modifications: N-linked sugar chains present (made in Expi293F cells, not PNGase F treated)
notes: Secreted from Expi293F cells and purified on Anti-Flag M2 gel; also called 3× Flag mouse CD69 EC protein; mouse CD69 extracellular region protein
B9: PNGase F-treated 3× Flag-mouse CD69 EC (without sugar chain) (receptor, not shown: small tags and cut ends)
chain: B8 chain
modifications: N-linked sugar chain cleaved with PNGase F
notes: also called 3× Flag-mouse CD69 EC subjected to sugar chain cleaving treatment; mouse CD69 extracellular region protein

The binders below were run against T1, human Myl12a-His (assay: ELISA, human Myl12a-His coated, anti-human IgG-HRP).
Procedure: (§1) The binding ability of chimeric and humanized antibodies prepared from Antibody A against human Myl12a and Myl12b was evaluated following the steps below by ELISA. Human Myl3-His, human Myl9-His, human Myl12a-His and human Myl12b-His were coated onto the wells of a 96-well plate (Nunc), respectively. After an overnight incubation at 4° C., the wells were blocked at room temperature for one hour with 1× Block Ace (DS Pharma Biomedical Co., Ltd.). After washing three times with 0.02% Tween 20/PBS, the chimeric and humanized antibodies were diluted at the concentration of 0.01, 0.1 and 1 μg/mL, respectively and added to the wells. After incubation at room temperature for one hour and washing three times, horseradish peroxidase-labeled anti-human IgG antibody (Jackson ImmunoResearch Laboratories) was added, and this was incubated at room temperature for one hour. After washing 5 times, TMBZ (3,3′,5,5′-tetramethylbenzidine) solution was added to the wells, and this was incubated for 5-20 minutes at room temperature. An equal amount of reaction quenching solution (2N H₂SO₄) was added to the wells, and absorbance at 450 nm was read with a microplate reader (Thermo Scientific).
B1: binds. B2: binds. B3: binds. B4: binds. B5: binds. B6: binds. B7: binds.

What follows are binders tested against T2, human Myl9-His (assay: ELISA, human Myl9-His coated, anti-human IgG-HRP).
Procedure: The binding ability against human Myl9 was evaluated following the steps below by ELISA. Human Myl3-His and human Myl9-His were coated onto the wells of a 96-well plate (Nunc). After an overnight incubation at 4° C., the wells were blocked at room temperature for one hour with 1× Block Ace (DS Pharma Biomedical Co., Ltd.). After washing three times with 0.02% Tween 20/PBS, seven serial dilutions by six folds of the chimeric and humanized antibodies were made from a concentration of 10 μg/mL and added to the wells. After incubation at room temperature for one hour and washing three times, horseradish peroxidase-labeled anti-human IgG antibody (Jackson ImmunoResearch Laboratories) was added, and this was incubated at room temperature for one hour. After washing 5 times, TMBZ (3,3′,5,5′-tetramethylbenzidine) solution was added to the wells, and this was incubated for 5-20 minutes at room temperature. An equal amount of reaction quenching solution (2N H₂SO₄) was added to the wells, and absorbance at 450 nm was read with a microplate reader (PerkinElmer).
B1: binds. B2: binds. B3: binds. B4: binds. B5: binds. B6: binds. B7: binds.

These binders were tested against T5, human Myl3-His (human, UniProt P08590 2-195, limits assumed) (assay: ELISA at 0.01, 0.1 and 1 µg/mL, human Myl3-His coated, anti-human IgG-HRP).
T5 construct: Made in E. coli; the GST tag was cleaved with PreScission Protease
T5 sequence (P08590 2-195 limits assumed): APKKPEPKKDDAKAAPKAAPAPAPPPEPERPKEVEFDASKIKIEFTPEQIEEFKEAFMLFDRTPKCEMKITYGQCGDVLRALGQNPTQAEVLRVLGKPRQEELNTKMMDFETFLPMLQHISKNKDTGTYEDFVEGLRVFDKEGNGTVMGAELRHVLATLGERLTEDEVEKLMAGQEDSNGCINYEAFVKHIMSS
Procedure: as §1
B1: no binding (tested: 1 µg/mL). B2: no binding (tested: 1 µg/mL). B3: no binding (tested: 1 µg/mL). B4: no binding (tested: 1 µg/mL). B5: no binding (tested: 1 µg/mL). B6: no binding (tested: 1 µg/mL). B7: no binding (tested: 1 µg/mL).

These binders were tested against T3, glutathione-S-transferase … (assay: ELISA, GST-His-mouse Myl9 coated, anti-Flag-HRP).
Procedure: Next, ELISA was performed in order to analyze the presence or absence of association between mouse Myl9 and mouse CD69 (FIGS. 3A and 3B). Specifically, GST-His-mouse Myl3 protein and GST-His-mouse Myl9 protein were added at a concentration of 5 μg/mL, and this was incubated overnight at 4° C. to immobilize them onan ELISA plate. On the next day, Block Ace (Sumitomo Dainippon Pharma Co., Ltd.) was employed to allow blocking at […] temperature for one hour, and then this was washed three times with a wash buffer (50 mM HEPES (pH 6.5), 150 mM NaCl, and 0.02% Tween 20). Different concentration of 3× Flag mouse CD69 EC protein was added to each well, and this was reacted at room temperature for one and a half hours. In FIG. 3B, 3× Flag mouse CD69 EC protein in which the N-linked sugar chain was cleaved with PNGase F (NEB) was employed. The cleaving treatment of the N-linked sugar chain was performed by employing 1,000 U of PNGase F for 4 μg of 3× Flag mouse CD69 EC protein. After washing three times with the wash buffer, HRP-labeled anti-Flag (M2) antibody (Sigma) was added, this was reacted at room temperature for one hour, and then washed five times with the wash buffer. TMB solution (BIO-RAD) was used as the coloring substrate, and the reaction was quenched with 1N H₂SO₄. SpectraMAX Paradigm (Molecular Device) was employed to measure the value at 450 nm.
B8: binds. B9: binds.

These binders were tested against T4, human Myl12b-His (assay: ELISA, human Myl12b-His coated, anti-human IgG-HRP).
Procedure: as §1
B1: binds. B2: binds. B3: binds. B4: binds. B5: binds. B6: binds. B7: binds.
